Reference: the supplement of paper PMC10567573

B1: KCNA4 (parent)
chain: YQLGEEALLKFREDEGFVREEEDR
B2: CASP6 (parent)
chain: TCADRDNLTRRFSDLGFEVKCFND

Variants of: B1
Experiment: protein stability index of a GFP-peptide fusion (GPS, HEK-293T) (PSI 1-6); higher = more stable
Conditions: c terminus: a fixed tail appended
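Also: lentivirally expressed fusions sorted by FACS into six bins by GFP to DsRed ratio, PSI derived from sequencing read proportions per bin multiplied by bin number.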

First: YQLGEEALLKFREDEGFVREECDR [E22C]
Second: YQLGEEALLKFREDEGFVREEDDR [E22D]
The protein stability index of the first is lower: 4.32 for the first, 4.65 for the second.

Compared with YQLGEEALLKFREDEGFVREEFDR [E22F], YQLGEEALLKFREDEGFVREEGDR [E22G] is higher in protein stability index: 3.82 for the first, 4.23 for the second.

First: YQLGEEALLKFREDEGFVREEHDR [E22H]
Second: YQLGEEALLKFREDEGFVREEIDR [E22I]
The protein stability index of the first is higher: 4.37 for the first, 4.03 for the second.

YQLGEEALLKFREDEGFVREEKDR [E22K] and YQLGEEALLKFREDEGFVREELDR [E22L] are the same in protein stability index: 3.99 for the first, 3.99 for the second.

Compared with YQLGEEALLKFREDEGFVREEMDR [E22M], YQLGEEALLKFREDEGFVREENDR [E22N] is lower in protein stability index: 4.92 for the first, 3.85 for the second.

Compared with YQLGEEALLKFREDEGFVREEPDR [E22P], YQLGEEALLKFREDEGFVREEQDR [E22Q] is higher in protein stability index: 4.16 for the first, 4.25 for the second.

Going from YQLGEEALLKFREDEGFVREERDR [E22R] to YQLGEEALLKFREDEGFVREESDR [E22S], the protein stability index rises from 3.95 to 4.02.

Going from YQLGEEALLKFREDEGFVREETDR [E22T] to YQLGEEALLKFREDEGFVREEVDR [E22V], the protein stability index rises from 4.11 to 4.13.

Compared with YQLGEEALLKFREDEGFVREEWDR [E22W], YQLGEEALLKFREDEGFVREEYDR [E22Y] is lower in protein stability index: 4.01 for the first, 3.58 for the second.

Going from YQLGEEALLKFREDEGFVREEEAR [D23A] to YQLGEEALLKFREDEGFVREEECR [D23C], the protein stability index rises from 4.28 to 4.48.

Compared with YQLGEEALLKFREDEGFVREEEER [D23E], YQLGEEALLKFREDEGFVREEEFR [D23F] is lower in protein stability index: 4.75 for the first, 4.14 for the second.

First: YQLGEEALLKFREDEGFVREEEGR [D23G]
Second: YQLGEEALLKFREDEGFVREEEHR [D23H]
The protein stability index of the first is lower: 3.88 for the first, 3.94 for the second.

Going from YQLGEEALLKFREDEGFVREEEIR [D23I] to YQLGEEALLKFREDEGFVREEEKR [D23K], the protein stability index rises from 3.88 to 4.45.

First: YQLGEEALLKFREDEGFVREEELR [D23L]
Second: YQLGEEALLKFREDEGFVREEEMR [D23M]
The protein stability index of the first is higher: 3.97 for the first, 3.76 for the second.

Compared with YQLGEEALLKFREDEGFVREEENR [D23N], YQLGEEALLKFREDEGFVREEEPR [D23P] is lower in protein stability index: 4.05 for the first, 3.82 for the second.

First: YQLGEEALLKFREDEGFVREEEQR [D23Q]
Second: YQLGEEALLKFREDEGFVREEERR [D23R]
The protein stability index of the first is lower: 4.04 for the first, 4.39 for the second.

Compared with YQLGEEALLKFREDEGFVREEESR [D23S], YQLGEEALLKFREDEGFVREEETR [D23T] is lower in protein stability index: 4.62 for the first, 4.11 for the second.

Going from YQLGEEALLKFREDEGFVREEEVR [D23V] to YQLGEEALLKFREDEGFVREEEWR [D23W], the protein stability index falls from 3.7 to 3.51.

Going from YQLGEEALLKFREDEGFVREEEYR [D23Y] to YQLGEEALLKFREDEGFVREEEDA [R24A], the protein stability index rises from 4.46 to 4.69.

Going from YQLGEEALLKFREDEGFVREEEDC [R24C] to YQLGEEALLKFREDEGFVREEEDD [R24D], the protein stability index rises from 4.21 to 4.71.

Going from YQLGEEALLKFREDEGFVREEEDE [R24E] to YQLGEEALLKFREDEGFVREEEDF [R24F], the protein stability index falls from 5.1 to 4.27.

Compared with YQLGEEALLKFREDEGFVREEEDG [R24G], YQLGEEALLKFREDEGFVREEEDH [R24H] is higher in protein stability index: 4.79 for the first, 4.83 for the second.

First: YQLGEEALLKFREDEGFVREEEDI [R24I]
Second: YQLGEEALLKFREDEGFVREEEDK [R24K]
The protein stability index of the first is lower: 4.6 for the first, 4.66 for the second.

Compared with YQLGEEALLKFREDEGFVREEEDL [R24L], YQLGEEALLKFREDEGFVREEEDM [R24M] is higher in protein stability index: 4.54 for the first, 4.88 for the second.

Compared with YQLGEEALLKFREDEGFVREEEDN [R24N], YQLGEEALLKFREDEGFVREEEDP [R24P] is higher in protein stability index: 4.72 for the first, 5.16 for the second.

Compared with YQLGEEALLKFREDEGFVREEEDQ [R24Q], YQLGEEALLKFREDEGFVREEEDS [R24S] is lower in protein stability index: 4.71 for the first, 4.65 for the second.

Going from YQLGEEALLKFREDEGFVREEEDT [R24T] to YQLGEEALLKFREDEGFVREEEDV [R24V], the protein stability index rises from 4.71 to 4.73.

First: YQLGEEALLKFREDEGFVREEEDW [R24W]
Second: YQLGEEALLKFREDEGFVREEEDY [R24Y]
The protein stability index of the first is higher: 4.53 for the first, 4.42 for the second.

Variants of: B2
Experiment: as above
Conditions: c terminus: a fixed tail appended

First: ACADRDNLTRRFSDLGFEVKCFND [T1A]
Second: CCADRDNLTRRFSDLGFEVKCFND [T1C]
The protein stability index of the first is higher: 3.73 for the first, 2.88 for the second.

First: DCADRDNLTRRFSDLGFEVKCFND [T1D]
Second: ECADRDNLTRRFSDLGFEVKCFND [T1E]
The protein stability index of the first is higher: 4.37 for the first, 3.74 for the second.

Going from FCADRDNLTRRFSDLGFEVKCFND [T1F] to GCADRDNLTRRFSDLGFEVKCFND [T1G], the protein stability index rises from 2.18 to 3.2.

First: HCADRDNLTRRFSDLGFEVKCFND [T1H]
Second: ICADRDNLTRRFSDLGFEVKCFND [T1I]
The protein stability index of the first is higher: 3.37 for the first, 2.73 for the second.

Going from KCADRDNLTRRFSDLGFEVKCFND [T1K] to LCADRDNLTRRFSDLGFEVKCFND [T1L], the protein stability index rises from 3.07 to 3.1.

Compared with MCADRDNLTRRFSDLGFEVKCFND [T1M], NCADRDNLTRRFSDLGFEVKCFND [T1N] is lower in protein stability index: 3.58 for the first, 3.03 for the second.

Compared with PCADRDNLTRRFSDLGFEVKCFND [T1P], QCADRDNLTRRFSDLGFEVKCFND [T1Q] is higher in protein stability index: 3.67 for the first, 4.05 for the second.

First: RCADRDNLTRRFSDLGFEVKCFND [T1R]
Second: SCADRDNLTRRFSDLGFEVKCFND [T1S]
The protein stability index of the first is lower: 3.06 for the first, 3.28 for the second.

First: VCADRDNLTRRFSDLGFEVKCFND [T1V]
Second: WCADRDNLTRRFSDLGFEVKCFND [T1W]
The protein stability index of the first is higher: 2.92 for the first, 2.32 for the second.

Compared with YCADRDNLTRRFSDLGFEVKCFND [T1Y], TAADRDNLTRRFSDLGFEVKCFND [C2A] is higher in protein stability index: 2.15 for the first, 4.04 for the second.

First: TDADRDNLTRRFSDLGFEVKCFND [C2D]
Second: TEADRDNLTRRFSDLGFEVKCFND [C2E]
The protein stability index of the first is lower: 3.81 for the first, 4.84 for the second.

Compared with TFADRDNLTRRFSDLGFEVKCFND [C2F], TGADRDNLTRRFSDLGFEVKCFND [C2G] is higher in protein stability index: 3.16 for the first, 3.47 for the second.

Compared with THADRDNLTRRFSDLGFEVKCFND [C2H], TIADRDNLTRRFSDLGFEVKCFND [C2I] is lower in protein stability index: 3.71 for the first, 3.35 for the second.

Going from TKADRDNLTRRFSDLGFEVKCFND [C2K] to TLADRDNLTRRFSDLGFEVKCFND [C2L], the protein stability index falls from 3.51 to 3.25.

Going from TMADRDNLTRRFSDLGFEVKCFND [C2M] to TNADRDNLTRRFSDLGFEVKCFND [C2N], the protein stability index rises from 3.38 to 4.32.

Going from TPADRDNLTRRFSDLGFEVKCFND [C2P] to TQADRDNLTRRFSDLGFEVKCFND [C2Q], the protein stability index falls from 4.04 to 3.43.

First: TRADRDNLTRRFSDLGFEVKCFND [C2R]
Second: TSADRDNLTRRFSDLGFEVKCFND [C2S]
The protein stability index of the first is lower: 3.74 for the first, 3.88 for the second.

Going from TTADRDNLTRRFSDLGFEVKCFND [C2T] to TVADRDNLTRRFSDLGFEVKCFND [C2V], the protein stability index rises from 3.54 to 3.93.

Going from TWADRDNLTRRFSDLGFEVKCFND [C2W] to TYADRDNLTRRFSDLGFEVKCFND [C2Y], the protein stability index rises from 2.36 to 3.23.
